Laboratory results taken from patent publication US20110129458A1 (Ablynx, published 2011).

T1: rhPDL2-Fc: fusion protein of the extracellular part of human PD-L2 and mouse Fc gamma 1, R&D Systems Cat … (human; mouse, UniProt Q9BQ51 20-220)
T1 construct: extracellular domain; Bought product, made in NS0 cells; also called PD-L2 ectodomain; PDL2/hFc
T1 sequence (looked up): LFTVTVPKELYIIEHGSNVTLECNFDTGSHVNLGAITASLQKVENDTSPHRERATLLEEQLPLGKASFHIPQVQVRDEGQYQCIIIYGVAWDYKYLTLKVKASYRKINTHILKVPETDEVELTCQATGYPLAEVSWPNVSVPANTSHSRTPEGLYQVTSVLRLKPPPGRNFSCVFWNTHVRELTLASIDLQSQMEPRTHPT

B1: 104D2 (VHH)
VHH: EVQLVESGGGLVQPGGSLRLSCAASGFTLDYYAIGWFRQAPGKEREWASSISSSDGSTYYADSVKGRFTISRDNAKNTVFLQMNSLKPEDTAVYSCAASQAPITIATMMKPFYDYWGQGTQVTVSS
notes: purified via the His-tag; also called anti-B7H1 nanobody 104D2
B2: 103E2 (VHH)
VHH: EVQLVESGGGLVQAGGSLRLSCAASGSTFSNYVSNYAMGWGRQAPGTQRELVASISNGDTTNYADSVKGRFTISRDNAKNTVYLQMNSLKPEDTAVYYCFEHQVAGLTWGQGTQVTVSS
notes: also called anti-PDL2 nanobody 103E2
B3: 104F5 (VHH)
VHH: EVQLVESGGGLVQPGGSLRLSCAASGFTLDYYAKCWFRQAPGKEREWVSCISSSDGSTYYADSVKGRFTISRDNAKNTVYLQMNSLKPEDTAVYFCAARHGGPLTVEYFFDYWGQGTQVTVSS
notes: purified via the His-tag; also called anti-B7H1 nanobody 104F5
B4: 103D3 (VHH)
VHH: EVQLVESGGGLVEPGGSLRLSCVASGFTFSSYDMSWVRQAPGKGLEWVSTINSGGGITYRGSVKGRFTISRDNAKNTLYLQMNSLKPEDTAVYYCENGGSSYRRGQGTQVTVSS
notes: also called anti-PDL2 nanobody 103D3
B5: 103F10 (VHH)
VHH: EVQLVESGGGLVQAGGSLRLSCAASGRTFSSGTMGWFRRAPGKEREFVASIPWSGGRTYYADSVKDRFTISRDNAQNTVFLQMNSLKPEDTAVYYCAFKERSTGWDFASWGQGIQVTVSS
notes: also called anti-PDL2 nanobody 103F10
B6: 104D7 (VHH)
VHH: EVQLVESGGGLVQAGGSLTISCAASGITFSDSIVSWYRRARGKQREWVAGISNGGTTKYAESVLGRFTISRDNAKNMVYLQMNGLNPEDTAVYLCKVRQYWGQGTQVTVSS
notes: also called anti-B7H1 nanobody 104D7
B7: 104E12 (VHH)
VHH: EVQLVESGGGLVQPGGSLRLSCAASGFTFDYYAIGWFRQAPGKAREGVSCISGGDNSTYYADSVKGRFTISRDNAKNTVYLQMNSLKPEDTAVYYCATGGWKYCSGYDPEYIYWGQGTQVTVSS
notes: also called anti-B7H1 nanobody 104E12
B8: 104B10 (VHH)
VHH: EVQLVESGGGLVQAGGSLRLSCAASGSTFSQYDVGWYRQAPGKQRELVAFSSSGGRTIYPDSVKGRFTFSRDNTKNTVYLQMTSLKPEDTAVYYCKIDWYLNSYWGQGTQVTVSS
notes: also called anti-B7H1 nanobody 104B10

Legend:
[1] = biological target: T2, rhB7H1-Fc: fusion protein of the extracellular part of human B7-H1 (PD-L1) and mouse Fc gamma 1, R&D Systems … (human; mouse, UniProt Q9NZQ7 19-238); assay: ELISA, purified Nanobody titrated on coated rhB7H1-Fc (Example 5), OD 490 nm
T2 construct: extracellular domain; Bought product, made in NS0 cells; also called B7-H1 ectodomain; B7H1/hFc
T2 sequence (Q9NZQ7 19-238 limits assumed): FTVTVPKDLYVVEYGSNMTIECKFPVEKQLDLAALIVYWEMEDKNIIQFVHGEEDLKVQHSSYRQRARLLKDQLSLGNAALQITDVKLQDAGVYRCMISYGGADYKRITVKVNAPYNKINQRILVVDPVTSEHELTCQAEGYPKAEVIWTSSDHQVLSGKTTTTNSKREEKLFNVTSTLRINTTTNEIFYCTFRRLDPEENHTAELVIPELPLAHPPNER
Experimental: In short, 5 μg/ml B7-H1 ectodomain (rhB7H1-Fc, R&D Systems, Minneapolis, US, Cat #156-B7) or control Fc was immobilized on maxisorp microtiter plates (Nunc, Wiesbaden, Germany) and free binding sites were blocked using 4% Marvel in. PBS. […] […] Binding specificity was determined based on OD values compared to controls having received no Nanobody (low control). 17 out of the 96 selected clones were able to bind to B7-H1 with some specificity.

[2] = biological target: T1, rhPDL2-Fc: fusion protein of the …; assay: ELISA, purified Nanobody titrated on coated PD-L2-Fc (Example 9), OD 490 nm
Experimental: In short, 5 μg/ml PD-L2 ectodomain (R&D Systems, Minneapolis, US, Cat #1224-PL) was immobilized on maxisorp microtiter plates (Nunc, Wiesbaden, Germany) and free binding sites were blocked using 4% Marvel in PBS. Next, 10 μl of periplasmic extract containing Nanobody of the different clones in 100 μl 2% Marvel PBST were allowed to bind to the immobilized antigen. […] Binding specificity was determined based on OD values compared to controls having received no Nanobody (low control). 32 out of the 96 selected clones were able to bind to PD-L2 with some specificity.
Clones were selected for recloning in an expression vector derived from pUC119 which contained the LacZ promoter, a resistance gene for ampicillin or carbenicillin, a multicloning site and the gen3 leader sequence. In frame with the Nanobody® coding sequence, the vector coded for a C-terminal c-myc tag and a (His)6 tag. After expression, the obtained Nanobodies were purified via the His-tag on Talon beads. Purified Nanobodies were tested in ELISA for binding to PD-L2 as described.

[3] = biological target: T2, rhB7H1-Fc: fusion protein of the …; assay: ELISA, Nanobody dilution series 1-3125 nM on coated B7H1/hFc, rabbit anti-VHH detection, OD 490 nm (Example 11)
Experimental: (§1) In order to check for bispecific binding, the clones selected and screened for PD-L2 binding were tested for binding PD-L1 in an ELISA setup. In short, plates were coated with 100 μl (2 μg/ml) of B7H1/hFc (R&D Systems, Minneapolis, US, Cat #156-B7) in PBS overnight at 4C. After washing, plates were blocked with 4% MPBS for 2 hours on a shaker. A dilution series of Nanobody (1-3125 nM) in 100 μl 2% Marvell/PBS was added and incubated for 1 hour on a shaker. After washing, detection was performed with 100 μl 1:5000 rabbit-anti-VHH in 2% Marvell/PBS for 1 hour on a shaker. After washing, anti-VHH antibody was detected with 100 μl 1:5000 DARPO (in 2% Marvell/PBS for 1 hour on a shaker). PO was detected with 100 μl OPD (add 1:1000 H₂O₂ before use). The reaction was stopped with 50 μl 1 M H₂SO₄ and absorption was read at 490 nm with a platereader.

[4] = biological target: T1, rhPDL2-Fc: fusion protein of the …; assay: ELISA, Nanobody dilution series 1-3125 nM on coated PDL2/hFc, rabbit anti-VHH detection, OD 490 nm (Example 10)
Experimental: as §1, with “screened for B7-H1 binding were” for “screened for PD-L2 binding were”, “for binding PD-L2 in an” for “for binding PD-L1 in an”, “μg/ml) of PDL2/hFc (R&D Systems,” for “μg/ml) of B7H1/hFc (R&D Systems,”, “US, Cat #1224-PL) in PBS” for “US, Cat #156-B7) in PBS”, “on a shaker, A dilution” for “on a shaker. A dilution”, “with […] and” for “with 50 μl 1 M H₂SO₄ and”

| Binder | binding result [1] | binding result [2] | binding result [3] | binding result [4] | EC50 (read off the curve) [4] [nM] |
| --- | --- | --- | --- | --- | --- |
| B1 | binds |  |  |  |  |
| B2 |  | binds | no binding (tested: 3125 nM) |  |  |
| B3 | binds |  |  | no binding (tested: 3125 nM) |  |
| B4 |  | binds | no binding (tested: 3125 nM) |  |  |
| B5 |  | binds | binds |  |  |
| B6 | binds |  |  |  | ~30 |
| B7 |  |  |  | no binding (tested: 3125 nM) |  |
| B8 | binds |  |  | binds |  |
